Results: the supplement of paper PMC6757056
± gives the standard deviation of the averaged measurements.

B1: library; a variant is named by its letters at N, in order (parent)
chain: GCUGUCACCGGUGUAUUACCCUAGUGGUCGACCGGUCUGAUGAGUCUNNNNNNAGACGAAACAGC

Experiments:
[1] = variants of: B1; assay: normalized RNA/DNA level with ligand (relative to sTRSVctl = 100) (log10 (% of sTRSVctl)); ligand: hypoxanthine (xanthine aptamer); higher = less ribozyme self-cleavage, higher mRNA level; details: ligand concentration (+) RNA-Seq: 5 mM, HEK293T, reporter: mCherry (pCS4076), ligand present: yes
How it was run: (§1)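 Library plasmids encoding reporter-linked ribozyme switches (mCherry, or eGFP for some folinic acid experiments) were transfected into HEK293T at 4 µg per 6-well well. Ligand, when used, was added 1 h before transfection. Total RNA was extracted with EDTA 72 h later, then reverse-transcribed, amplified, barcoded and sequenced. RNA level was RNA reads over DNA reads, divided by a spiked-in non-cleaving control (or the top 25 sequences), ×100, log10; only sequences with ≥100 DNA reads were kept.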

[2] = variants of: B1; assay: normalized RNA/DNA level without ligand (relative to sTRSVctl = 100) (log10 (% of sTRSVctl)); ligand: hypoxanthine (xanthine aptamer); higher = less ribozyme self-cleavage, higher mRNA level; details: HEK293T, reporter: mCherry (pCS4076), ligand present: no
How it was run: as §1

| Variant | normalized RNA/DNA level with ligand (log10) [1] | normalized RNA/DNA level without ligand (log10) [2] |
| --- | --- | --- |
| GCUGUCACCGGUGUAUUACCCUAGUGGUCGACCGGUCUGAUGAGUCUAUUUCCAGACGAAACAGC [AUUUCC] | 1.9621 ± 0.0014 | 1.878 ± 0.0067 |
| GCUGUCACCGGUGUAUUACCCUAGUGGUCGACCGGUCUGAUGAGUCUUCCUCGAGACGAAACAGC [UCCUCG] | 1.97 ± 0.065 | 1.68 ± 0.058 |
| GCUGUCACCGGUGUAUUACCCUAGUGGUCGACCGGUCUGAUGAGUCUGUCUCCAGACGAAACAGC [GUCUCC] | 1.99 ± 0.047 | 1.94 ± 0.084 |
| GCUGUCACCGGUGUAUUACCCUAGUGGUCGACCGGUCUGAUGAGUCUACCGCUAGACGAAACAGC [ACCGCU] | 1.925 ± 0.0096 | 1.89 ± 0.041 |
| GCUGUCACCGGUGUAUUACCCUAGUGGUCGACCGGUCUGAUGAGUCUUCAUAUAGACGAAACAGC [UCAUAU] | 1.88 ± 0.029 | 1.77 ± 0.041 |
| GCUGUCACCGGUGUAUUACCCUAGUGGUCGACCGGUCUGAUGAGUCUACUGCCAGACGAAACAGC [ACUGCC] | 1.9853 ± 0.0019 | 1.89 ± 0.065 |
| GCUGUCACCGGUGUAUUACCCUAGUGGUCGACCGGUCUGAUGAGUCUCUGCCCAGACGAAACAGC [CUGCCC] | 1.99 ± 0.039 | 1.971 ± 0.0093 |
| GCUGUCACCGGUGUAUUACCCUAGUGGUCGACCGGUCUGAUGAGUCUCGCUAAAGACGAAACAGC [CGCUAA] | 1.91 ± 0.061 | 1.71 ± 0.028 |
| GCUGUCACCGGUGUAUUACCCUAGUGGUCGACCGGUCUGAUGAGUCUAGAACUAGACGAAACAGC [AGAACU] | 1.96 ± 0.035 | 1.83 ± 0.022 |
| GCUGUCACCGGUGUAUUACCCUAGUGGUCGACCGGUCUGAUGAGUCUUAGACAAGACGAAACAGC [UAGACA] | 1.9 ± 0.038 | 1.857 ± 0.0097 |
| GCUGUCACCGGUGUAUUACCCUAGUGGUCGACCGGUCUGAUGAGUCUAGCUCCAGACGAAACAGC [AGCUCC] | 1.97 ± 0.14 | 1.95 ± 0.034 |
| GCUGUCACCGGUGUAUUACCCUAGUGGUCGACCGGUCUGAUGAGUCUUAAGUUAGACGAAACAGC [UAAGUU] | 1.97 ± 0.025 | 1.83 ± 0.02 |
| GCUGUCACCGGUGUAUUACCCUAGUGGUCGACCGGUCUGAUGAGUCUACUUUAAGACGAAACAGC [ACUUUA] | 1.903 ± 0.015 | 1.82 ± 0.067 |
| GCUGUCACCGGUGUAUUACCCUAGUGGUCGACCGGUCUGAUGAGUCUUAUCCAAGACGAAACAGC [UAUCCA] | 1.918 ± 0.0099 | 1.904 ± 0.011 |
| GCUGUCACCGGUGUAUUACCCUAGUGGUCGACCGGUCUGAUGAGUCUAACAGCAGACGAAACAGC [AACAGC] | 1.94 ± 0.036 | 1.83 ± 0.05 |
| GCUGUCACCGGUGUAUUACCCUAGUGGUCGACCGGUCUGAUGAGUCUAAUGCCAGACGAAACAGC [AAUGCC] | 1.942 ± 0.015 | 1.83 ± 0.039 |
| GCUGUCACCGGUGUAUUACCCUAGUGGUCGACCGGUCUGAUGAGUCUGCCGGAAGACGAAACAGC [GCCGGA] | 1.95 ± 0.043 | 1.93 ± 0.065 |
| GCUGUCACCGGUGUAUUACCCUAGUGGUCGACCGGUCUGAUGAGUCUGUCGAUAGACGAAACAGC [GUCGAU] | 1.93 ± 0.07 | 1.76 ± 0.039 |
| GCUGUCACCGGUGUAUUACCCUAGUGGUCGACCGGUCUGAUGAGUCUUUUCUUAGACGAAACAGC [UUUCUU] | 1.94 ± 0.036 | 1.95 ± 0.036 |
| GCUGUCACCGGUGUAUUACCCUAGUGGUCGACCGGUCUGAUGAGUCUCGCUUUAGACGAAACAGC [CGCUUU] | 1.911 ± 0.01 | 1.859 ± 0.009 |
| GCUGUCACCGGUGUAUUACCCUAGUGGUCGACCGGUCUGAUGAGUCUGUUCUAAGACGAAACAGC [GUUCUA] | 1.949 ± 0.011 | 1.89 ± 0.039 |
